One protein from PMC11890623, “Pseudomonas aeruginosa acyl-CoA dehydrogenases and structure-guided inversion of their substrate specificity” (Nature Communications, 2025) can be followed below.

Assay in all cases: Michaelis-Menten kinetics of purified enzyme (KM)
Common to all, as to assay type: biochemical, Pseudomonas aeruginosa
Holding throughout (conditions): FAD

Substrate in data set [1]: CCCC(=O)SCCNC(=O)CCNC(=O)[C@H](O)C(C)(C)COP(=O)(O)OP(=O)(O)OC[C@H]1O[C@@H](n2cnc3c(N)ncnc32)[C@H](O)[C@@H]1OP(=O)(O)O
Substrate in data set [2]: CCCCCC(=O)SCCNC(=O)CCNC(=O)[C@H](O)C(C)(C)COP(=O)(O)OP(=O)(O)OC[C@H]1O[C@@H](n2cnc3c(N)ncnc32)[C@H](O)[C@@H]1OP(=O)(O)O
Substrate in data set [3]: CCCCCCCC(=O)SCCNC(=O)CCNC(=O)[C@H](O)C(C)(C)COP(=O)(O)OP(=O)(O)OC[C@H]1O[C@@H](n2cnc3c(N)ncnc32)[C@H](O)[C@@H]1OP(=O)(O)O

B1: FadE2 (Pseudomonas aeruginosa PAO1) (protein)
chain: MADYKAPLRDMRFVLNEVFEVSRLWAQLPALAEVVDAETAAAILEEAGKVTAGTIAPLNRPGDEEGCQWNAGAVSTPAGFPEAYRTYAEGGWVGVGGDPAYGGMGMPKVISAQVEELVNSANLSFGLYPMLTAGACLALNAHASDELKDKYLPNMYAGIWAGSMCLTEPHAGTDLGIIRTRAEPQADGSYKISGTKIFITGGEHDLTENIIHLVLAKLPDAPAGPKGISLFLVPKVLVNADGSLGEKNSLGCGSIEHKMGIKASATCVMNFDGATGWLVGEVNKGLAAMFTMMNYERLGVGIQGLATGERSYQSAIEYARERIQSRAPTGPVAKDKAADPIIVHPDVRRMLLTMKALNEGGRAFSSYVAMQLDTAKYSEDAVTRKRAEELVALLTPVAKAFLTDMGLETTIHGQQIFGGHGFIREWGQEQLVRDCRITQIYEGTNGIQALDLVGRKVIGSGGAFSRHFTDEIKAFVASADEALGEFSKPLAAAVENLEELTAWLLDRAKGNPNEIGAASVEYLHVFGYTAYAYMWALMARTALAKQGEDDFYASKLGTARFYFARLLPRIHSLSASVRAGSESLYLLDAEQF
notes: full-length ORF, His6 tag removed by TEV
For B1, the Km in data set [1] amounted to 10.35 ± 1.06 µM; in data set [2], 14.6 ± 1.43 µM; in data set [3], 21.59 ± 1.23 µM.
